# Measured values from patent US20140329752A1 (published 2014).
# Ends that are not written are not given here.
# B1: AC187 (peptide)
# peptide: VLGKLSQELHKLQTYPRTNTGSNTY
# modifications: not fully specified
# B2: modified calcitonin gene-related peptide antagonist of SEQ ID NO: 5 (peptide)
# peptide: H-ACVLGACVLGRLSQELHRLQTYPRTNVGSKAF-NH2
# modifications: not fully specified (bridges); printed as NH2-Ala-Cys-Val-Leu-Gly-Ala-Cys-Val-Leu-Gly-Arg-Leu-Ser-Gln-Glu-Leu-His-Arg-Leu-Gln-Thr-Tyr-Pro-Arg-Thr-Asn-Val-Gly-Ser-Lys-Ala-Phe-NH2; cysteine pairing not given here
# B3: modified calcitonin gene-related peptide antagonist of SEQ ID NO: 14 (peptide)
# peptide: ACVLGACVLGRLSQELHRLQTYPVDPSSPHSY-NH2
# modifications: not fully specified (bridges); printed as Ala-Cys-Val-Leu-Gly-Ala-Cys-Val-Leu-Gly-Arg-Leu-Ser-Gln-Glu-Leu-His-Arg-Leu-Gln-Thr-Tyr-Pro-Val-Asp-Pro-Ser-Ser-Pro-His-Ser-Tyr-NH2; cysteine pairing not given here
# B4: modified calcitonin gene-related peptide antagonist of SEQ ID NO: 9 (peptide)
# peptide: H-ACDTALCVLGRLSQELHRLQTYPRTNVGSKAF-NH2
# modifications: not fully specified (bridges); printed as NH2-Ala-Cys-Asp-Thr-Ala-Leu-Cys-Val-Leu-Gly-Arg-Leu-Ser-Gln-Glu-Leu-His-Arg-Leu-Gln-Thr-Tyr-Pro-Arg-Thr-Asn-Val-Gly-Ser-Lys-Ala-Phe-NH2; cysteine pairing not given here
# B5: modified calcitonin gene-related peptide antagonist of SEQ ID NO: 10 (peptide)
# peptide: H-ACDTAICVLGRLSQELHRLQTYPRTNVGSKAF-NH2
# modifications: not fully specified (bridges); printed as NH2-Ala-Cys-Asp-Thr-Ala-Ile-Cys-Val-Leu-Gly-Arg-Leu-Ser-Gln-Glu-Leu-His-Arg-Leu-Gln-Thr-Tyr-Pro-Arg-Thr-Asn-Val-Gly-Ser-Lys-Ala-Phe-NH2; cysteine pairing not given here
# B6: modified calcitonin gene-related peptide antagonist of SEQ ID NO: 4 (peptide)
# peptide: H-ACNTAACVLGRLSQELHRLQTYPRTNVGSKAF-NH2
# modifications: not fully specified (bridges); printed as NH2-Ala-Cys-Asn-Thr-Ala-Ala-Cys-Val-Leu-Gly-Arg-Leu-Ser-Gln-Glu-Leu-His-Arg-Leu-Gln-Thr-Tyr-Pro-Arg-Thr-Asn-Val-Gly-Ser-Lys-Ala-Phe-NH2; cysteine pairing not given here
# B7: modified calcitonin gene-related peptide antagonist of SEQ ID NO: 1 (peptide)
# peptide: H-ACDTAACVLGRLSQELHRLQTYPRTNVGSKAF-NH2
# modifications: not fully specified (bridges); printed as NH2-Ala-Cys-Asp-Thr-Ala-Ala-Cys-Val-Leu-Gly-Arg-Leu-Ser-Gln-Glu-Leu-His-Arg-Leu-Gln-Thr-Tyr-Pro-Arg-Thr-Asn-Val-Gly-Ser-Lys-Ala-Phe-NH2; cysteine pairing not given here
# B8: modified calcitonin gene-related peptide antagonist of SEQ ID NO: 2 (peptide)
# peptide: H-ACDTASCVLGRLSQELHRLQTYPRTNVGSKAF-NH2
# modifications: not fully specified (bridges); printed as NH2-Ala-Cys-Asp-Thr-Ala-Ser-Cys-Val-Leu-Gly-Arg-Leu-Ser-Gln-Glu-Leu-His-Arg-Leu-Gln-Thr-Tyr-Pro-Arg-Thr-Asn-Val-Gly-Ser-Lys-Ala-Phe-NH2; cysteine pairing not given here
# B9: modified calcitonin gene-related peptide antagonist of SEQ ID NO: 12 (peptide)
# peptide: H-CSNTAVCVLGRLSQELHRLQTYPRTNVGSKAF-NH2
# modifications: not fully specified (bridges); printed as NH2-Cys-Ser-Asn-Thr-Ala-Val-Cys-Val-Leu-Gly-Arg-Leu-Ser-Gln-Glu-Leu-His-Arg-Leu-Gln-Thr-Tyr-Pro-Arg-Thr-Asn-Val-Gly-Ser-Lys-Ala-Phe-NH2; cysteine pairing not given here
# B10: modified calcitonin gene-related peptide antagonist of SEQ ID NO: 11 (peptide)
# peptide: H-ACNLSVCVLGRLSQELHRLQTYPRTNVGSKAF-NH2
# modifications: not fully specified (bridges); printed as NH2-Ala-Cys-Asn-Leu-Ser-Val-Cys-Val-Leu-Gly-Arg-Leu-Ser-Gln-Glu-Leu-His-Arg-Leu-Gln-Thr-Tyr-Pro-Arg-Thr-Asn-Val-Gly-Ser-Lys-Ala-Phe-NH2; cysteine pairing not given here
# B11: modified calcitonin gene-related peptide antagonist of SEQ ID NO: 3 (peptide)
# peptide: H-ACDTAVCVLGRLSQELHRLQTYPRTNVGSKAF-NH2
# modifications: not fully specified (bridges); printed as NH2-Ala-Cys-Asp-Thr-Ala-Val-Cys-Val-Leu-Gly-Arg-Leu-Ser-Gln-Glu-Leu-His-Arg-Leu-Gln-Thr-Tyr-Pro-Arg-Thr-Asn-Val-Gly-Ser-Lys-Ala-Phe-NH2; cysteine pairing not given here
# B12: modified calcitonin gene-related peptide antagonist of SEQ ID NO: 13 (peptide)
# peptide: H-ACNLSACVLGRLSQELHRLQTYPTNTGSGTP-NH2
# modifications: not fully specified (bridges); printed as NH2-Ala-Cys-Asn-Leu-Ser-Ala-Cys-Val-Leu-Gly-Arg-Leu-Ser-Gln-Glu-Leu-His-Arg-Leu-Gln-Thr-Tyr-Pro-Thr-Asn-Thr-Gly-Ser-Gly-Thr-Pro-NH2; cysteine pairing not given here
# B13: modified calcitonin gene-related peptide antagonist of SEQ ID NO: 15 (peptide)
# peptide: ACDTAACVTHRLAGLLSRSGGVVKNNFVPTNVGSKAF-NH2
# modifications: not fully specified (bridges); printed as Ala-Cys-Asp-Thr-Ala-Ala-Cys-Val-Thr-His-Arg-Leu-Ala-Gly-Leu-Leu-Ser-Arg-Ser-Gly-Gly-Val-Val-Lys-Asn-Asn-Phe-Val-Pro-Thr-Asn-Val-Gly-Ser-Lys-Ala-Phe-NH2; cysteine pairing not given here
# B14: modified calcitonin gene-related peptide antagonist of SEQ ID NO: 7 (peptide)
# peptide: H-ACNLSACVLGRLSQELHRLQTYPRTNVGSKAF-NH2
# modifications: not fully specified (bridges); printed as NH2-Ala-Cys-Asn-Leu-Ser-Ala-Cys-Val-Leu-Gly-Arg-Leu-Ser-Gln-Glu-Leu-His-Arg-Leu-Gln-Thr-Tyr-Pro-Arg-Thr-Asn-Val-Gly-Ser-Lys-Ala-Phe-NH2; cysteine pairing not given here
# B15: modified calcitonin gene-related peptide antagonist of SEQ ID NO: 6 (peptide)
# peptide: H-ACRFGACVLGRLSQELHRLQTYPRTNVGSKAF-NH2
# modifications: not fully specified (bridges); printed as NH2-Ala-Cys-Arg-Phe-Gly-Ala-Cys-Val-Leu-Gly-Arg-Leu-Ser-Gln-Glu-Leu-His-Arg-Leu-Gln-Thr-Tyr-Pro-Arg-Thr-Asn-Val-Gly-Ser-Lys-Ala-Phe-NH2; cysteine pairing not given here
# B16: modified calcitonin gene-related peptide antagonist of SEQ ID NO: 8 (peptide)
# peptide: H-CSNTAACVLGRLSQELHRLQTYPRTNVGSKAF-NH2
# modifications: not fully specified (bridges); printed as NH2-Cys-Ser-Asn-Thr-Ala-Ala-Cys-Val-Leu-Gly-Arg-Leu-Ser-Gln-Glu-Leu-His-Arg-Leu-Gln-Thr-Tyr-Pro-Arg-Thr-Asn-Val-Gly-Ser-Lys-Ala-Phe-NH2; cysteine pairing not given here
# Biological target: T1, amylin receptor AMY1, a CT (calcitonin) receptor/RAMP1 (receptor-activity modifying protein) complex (UniProt P30988 25-474; O60894 27-148, limits assumed)
# Experiment: cell-based or functional assay
# T1 sequence (P30988 25-474 limits assumed, chain 1 of 2): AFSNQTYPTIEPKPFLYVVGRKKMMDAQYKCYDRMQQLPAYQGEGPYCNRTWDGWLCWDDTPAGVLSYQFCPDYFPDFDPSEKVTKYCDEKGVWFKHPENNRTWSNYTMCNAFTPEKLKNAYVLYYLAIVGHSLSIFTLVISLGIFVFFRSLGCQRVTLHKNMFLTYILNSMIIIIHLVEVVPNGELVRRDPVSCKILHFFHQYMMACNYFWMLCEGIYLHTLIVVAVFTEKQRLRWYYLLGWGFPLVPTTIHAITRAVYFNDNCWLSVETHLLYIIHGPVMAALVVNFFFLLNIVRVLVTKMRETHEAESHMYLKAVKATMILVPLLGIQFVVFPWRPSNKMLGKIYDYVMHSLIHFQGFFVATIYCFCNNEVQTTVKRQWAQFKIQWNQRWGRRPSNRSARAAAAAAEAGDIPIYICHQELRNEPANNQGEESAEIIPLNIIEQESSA
# T1 sequence (O60894 27-148 limits assumed, chain 2 of 2): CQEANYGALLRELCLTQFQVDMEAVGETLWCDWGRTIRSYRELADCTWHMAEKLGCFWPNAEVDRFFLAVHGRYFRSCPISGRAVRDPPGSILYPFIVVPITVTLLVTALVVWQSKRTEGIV
row,"IC50 nM (calcium flux, assay positive control) [nM]",Binder
1,8150,B1

# Biological target: T1, amylin receptor AMY1, a CT (calcitonin) …
# Experiment: cell-based or functional assay
# Remark: another data set of the same source
row,"IC50 nM (calcium flux, inhibition of stimulation by 32 nM α-CGRP) [nM]",Binder
1,75,B2
2,1020,B3
3,9,B4
4,9,B5
5,12,B6
6,17,B7
7,5,B8
8,9,B9
9,9,B10
10,4,B11
11,4,B12
12,1240,B13
13,8,B14
14,33,B15
15,16,B16
